Measured values taken from patent US20180360972A1 (REGENTS OF THE UNIVERSITY OF MINNESOTA, published 2018).
Square brackets hold non-standard residues; d marks the D form. d2Nal = N[C@H](Cc1ccc2ccccc2c1)C(=O)O

Experiments:
[1] = biological target: hMC4R PRESTO-Tango plasmid construct, transiently expressed in HTLA cells (human, UniProt P32245 1-332); assay: cell-based or functional assay
[2] = biological target: T1, mMC4R-HaloTag fusion protein (mouse, UniProt P56450 1-332, HaloTag NanoBRET 618 ligand bound to the HaloTag); assay: NanoBRET in transiently transfected cells; basal signal with assay buffer set as 100%
T1 construct: whole, on cells; not shown: HaloTag on the C-terminus

[3] = biological target: human melanocortin-4 receptor (hMC4R), stably expressed in HEK293 cells (human, UniProt P32245 1-332); assay: cell-based or functional assay
Chain of human melanocortin-4 receptor (hMC4R), stably expressed in HEK293 cells (P32245 whole entry): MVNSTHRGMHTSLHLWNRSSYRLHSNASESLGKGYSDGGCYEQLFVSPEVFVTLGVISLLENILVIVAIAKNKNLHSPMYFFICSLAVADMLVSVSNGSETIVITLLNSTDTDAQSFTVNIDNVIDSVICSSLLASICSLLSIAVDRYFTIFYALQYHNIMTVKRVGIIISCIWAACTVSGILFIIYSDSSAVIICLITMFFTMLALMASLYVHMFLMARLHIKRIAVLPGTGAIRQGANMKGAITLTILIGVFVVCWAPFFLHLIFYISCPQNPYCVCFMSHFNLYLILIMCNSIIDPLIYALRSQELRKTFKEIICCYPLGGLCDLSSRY

Chain of hMC4R PRESTO-Tango plasmid construct, transiently expressed in HTLA cells (P32245 whole entry, the tested form may be a part): as the sequence (P32245 whole entry) above

B1: CJL-1-80, Ac-His-DNal(2')-Arg-Trp-NH2 (peptide)
peptide: Ac-H[d2Nal]RW-NH2
β-arrestin recruitment, response at 10 µM relative to the maximal efficacy of NDP-MSH [1]: 30%

B2: mMC4R-NanoLuc fusion protein (receptor, mouse, UniProt P56450 1-332, looked up)
chain: MNSTHHHGMYTSLHLWNRSSYGLHGNASESLGKGHPDGGCYEQLFVSPEVFVTLGVISLLENILVIVAIAKNKNLHSPMYFFICSLAVADMLVSVSNGSETIVITLLNSTDTDAQSFTVNIDNVIDSVICSSLLASICSLLSIAVDRYFTIFYALQYHNIMTVRRVGIIISCIWAACTVSGVLFIIYSDSSAVIICLISMFFTMLVLMASLYVHMFLMARLHIKRIAVLPGTGTIRQGTNMKGAITLTILIGVFVVCWAPFFLHLLFYISCPQNPYCVCFMSHFNLYLILIMCNAVIDPLIYALRSQELRKTFKEIICFYPLGGICELSSRY
notes: whole, on cells; not shown: NanoLuc on the C-terminus
binding result [2]: binds

B3: equal mixture of tetrapeptides CJL-1-14+CJL-1-80 (other)
peptide 1: Ac-H[dF]RW-NH2
peptide 2: Ac-H[d2Nal]RW-NH2
modifications: also: 1:1 mixture of two separate peptides
cAMP signaling (AlphaScreen), EC50 [3]: 1.9 nM
